According to patent publication US20240132624A1 (Ablynx, published 2024):
Where a chain is given by its changes, count along the chain named.

B1: T0263018B11 S101W (VHH, name in Kabat numbering)
VHH: EVQLVESGGGVVQPGGSLRLSCAASGFTFSSYAMYWVRQAPGKGLEWVSAISSGGGSTDYADSVKGRFTISRDNSKNTLYLQMNSLRPEDTALYYCAADTLYTSLTWYWYWGQGTLVTVSS
notes: FLAG3-His6 tagged
B2: T0263018B11 T28I (VHH, name in Kabat numbering)
VHH: B1 VHH with T28I, W109S
notes: FLAG3-His6 tagged
B3: T0263018B11 T28L (VHH, name in Kabat numbering)
VHH: B1 VHH with T28L, W109S
notes: FLAG3-His6 tagged
B4: T0263018B11 T28N (VHH, name in Kabat numbering)
VHH: B1 VHH with T28N, W109S
notes: FLAG3-His6 tagged
B5: T0263018B11 T28P (VHH, name in Kabat numbering)
VHH: B1 VHH with T28P, W109S
notes: FLAG3-His6 tagged
B6: T0263018B11 T28V (VHH, name in Kabat numbering)
VHH: B1 VHH with T28V, W109S
notes: FLAG3-His6 tagged
B7: T0263018B11 T28W (VHH, name in Kabat numbering)
VHH: B1 VHH with T28W, W109S
notes: FLAG3-His6 tagged
B8: T0263018B11 T28Y (VHH, name in Kabat numbering)
VHH: B1 VHH with T28Y, W109S
notes: FLAG3-His6 tagged
B9: T0263018B11 T57F (VHH, name in Kabat numbering)
VHH: B1 VHH with T58F, W109S
notes: FLAG3-His6 tagged
B10: T0263018B11 T57I (VHH, name in Kabat numbering)
VHH: B1 VHH with T58I, W109S
notes: FLAG3-His6 tagged
B11: T0263018B11 T57L (VHH, name in Kabat numbering)
VHH: B1 VHH with T58L, W109S
notes: FLAG3-His6 tagged
B12: T0263018B11 T57N (VHH, name in Kabat numbering)
VHH: B1 VHH with T58N, W109S
notes: FLAG3-His6 tagged
B13: T0263018B11 T57P (VHH, name in Kabat numbering)
VHH: B1 VHH with T58P, W109S
notes: FLAG3-His6 tagged
B14: T0263018B11 T57S (VHH, name in Kabat numbering)
VHH: B1 VHH with T58S, W109S
notes: FLAG3-His6 tagged
B15: T0263018B11 T57V (VHH, name in Kabat numbering)
VHH: B1 VHH with T58V, W109S
notes: FLAG3-His6 tagged
B16: T0263018B11 T57W (VHH, name in Kabat numbering)
VHH: B1 VHH with T58W, W109S
notes: FLAG3-His6 tagged
B17: T0263018B11 T96A (VHH, name in Kabat numbering)
VHH: B1 VHH with T100A, W109S
notes: FLAG3-His6 tagged
B18: T0263018B11 T96F (VHH, name in Kabat numbering)
VHH: B1 VHH with T100F, W109S
notes: FLAG3-His6 tagged
B19: T0263018B11 T96I (VHH, name in Kabat numbering)
VHH: B1 VHH with T100I, W109S
notes: FLAG3-His6 tagged
B20: T0263018B11 T96M (VHH, name in Kabat numbering)
VHH: B1 VHH with T100M, W109S
notes: FLAG3-His6 tagged
B21: T0263018B11 T96Q (VHH, name in Kabat numbering)
VHH: B1 VHH with T100Q, W109S
notes: FLAG3-His6 tagged
B22: T0263018B11 T96S (VHH, name in Kabat numbering)
VHH: B1 VHH with T100S, W109S
notes: FLAG3-His6 tagged
B23: T0263018B11 T96V (VHH, name in Kabat numbering)
VHH: B1 VHH with T100V, W109S
notes: FLAG3-His6 tagged
B24: T0263018B11 T96Y (VHH, name in Kabat numbering)
VHH: B1 VHH with T100Y, W109S
notes: FLAG3-His6 tagged
B25: T0263018B11 T100bE (VHH, name in Kabat numbering)
VHH: B1 VHH with T106E, W109S
notes: FLAG3-His6 tagged
B26: T0263018B11 T100bL (VHH, name in Kabat numbering)
VHH: B1 VHH with T106L, W109S
notes: FLAG3-His6 tagged
B27: T0263018B11 W100cA (VHH, name in Kabat numbering)
VHH: B1 VHH with W107A, W109S
notes: FLAG3-His6 tagged
B28: T0263018B11 W100cD (VHH, name in Kabat numbering)
VHH: B1 VHH with W107D, W109S
notes: FLAG3-His6 tagged
B29: T0263018B11 W100cF (VHH, name in Kabat numbering)
VHH: B1 VHH with W107F, W109S
notes: FLAG3-His6 tagged
B30: T0263018B11 W100cG (VHH, name in Kabat numbering)
VHH: B1 VHH with W107G, W109S
notes: FLAG3-His6 tagged
B31: T0263018B11 W100cL (VHH, name in Kabat numbering)
VHH: B1 VHH with W107L, W109S
notes: FLAG3-His6 tagged

Tests used:
[1] = biological target: T1, human FcRn/b2M (human, UniProt P61769 21-119, biotinylated); experiment: SPR pH 6.0;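 further: surface plasmon resonance kinetics at 25 °C, diluted periplasmic extracts injected over immobilized ligand surfaces, 120 s association then 600–3600 s dissociation, running buffer containing 150 mM NaCl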
T1 construct: bought recombinant biotinylated protein (ACRO FCM-H82W4 or Immunitrack ITF01); also called hFcRn; hFcRn/hb2M
Protocol: (§1) All kinetic measurements have been performed on ProteOn XPR36 (BioRad Laboratories, Inc.), MASS-2 (Sierra sensors, Gmbh) or SPR-32 (Bruker Corporation). […] The phytip purified periplasmic extracts were diluted 1:10 in running buffer (CPA+150 mM NaCl+0.005% Tw20 at pH 5.5, pH 6.0 or pH 7.4) and injected over the ligand surfaces (association: 120 s at 45 μL/min; dissociation: 600s-3600 s at 45 μL/min). Experiments were carried out at 25° C.

[2] = biological target: T2, cyno FcRn/b2M (cyno, UniProt Q8SPV9 24-297; Q8SPW0 21-119, biotinylated); experiment: SPR pH 6.0;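 further: surface plasmon resonance kinetics at 25 °C, diluted periplasmic extracts injected over immobilized ligand surfaces, 120 s association then 600–3600 s dissociation, running buffer containing 150 mM NaCl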
T2 construct: bought recombinant biotinylated protein (Immunitrack ITF05 or ACRO FCM-C82W5); also called cFcRn; cFcRn/cb2M
Protocol: as §1

[3] = biological target: T1, human FcRn/b2M; experiment: SPR pH 7.4;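 further: surface plasmon resonance kinetics, periplasmic extracts diluted 1:10 flowed over immobilized target at 25 °C, 120 s association then 600–3600 s dissociation, buffer with 150 mM NaCl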
Protocol: as §1

[4] = biological target: T2, cyno FcRn/b2M; experiment: SPR pH 7.4;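 further: surface plasmon resonance kinetics, periplasmic extracts diluted 1:10 flowed over immobilized target at 25 °C, 120 s association then 600–3600 s dissociation, buffer with 150 mM NaCl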
Protocol: as §1

[5] = biological target: T1, human FcRn/b2M; experiment: SPR off-rate; pH 7.4 vs pH 6.0;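 further: surface plasmon resonance with diluted periplasmic extracts flowed over ligand surfaces, 120 s association and 600–3600 s dissociation at 25 °C, running buffer containing 150 mM NaCl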
Protocol: as §1

[6] = biological target: T2, cyno FcRn/b2M; experiment: SPR off-rate; pH 7.4 vs pH 6.0;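 further: surface plasmon resonance with diluted periplasmic extracts flowed over ligand surfaces, 120 s association and 600–3600 s dissociation at 25 °C, running buffer containing 150 mM NaCl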
Protocol: as §1

T1 sequence (chain, as listed by the source limits assumed, chain 1 of 2): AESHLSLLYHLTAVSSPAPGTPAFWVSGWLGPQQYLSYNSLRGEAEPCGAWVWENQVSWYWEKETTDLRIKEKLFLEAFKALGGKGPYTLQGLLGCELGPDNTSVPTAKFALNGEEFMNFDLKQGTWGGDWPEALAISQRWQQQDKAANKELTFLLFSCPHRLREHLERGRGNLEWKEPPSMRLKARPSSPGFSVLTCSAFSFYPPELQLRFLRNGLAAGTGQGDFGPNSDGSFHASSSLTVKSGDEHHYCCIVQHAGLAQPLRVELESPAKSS
T1 sequence (P61769 21-119 limits assumed, chain 2 of 2): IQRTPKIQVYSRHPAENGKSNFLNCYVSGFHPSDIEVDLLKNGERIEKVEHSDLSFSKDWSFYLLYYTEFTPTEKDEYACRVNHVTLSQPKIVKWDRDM
T2 sequence (Q8SPV9 24-297 limits assumed, chain 1 of 2): as the sequence (chain, as listed by the source limits assumed, chain 1 of 2) above, with N39D, E44Q, G99S, S189G, S190N, L217M, S269T counted along it
T2 sequence (Q8SPW0 21-119 limits assumed, chain 2 of 2): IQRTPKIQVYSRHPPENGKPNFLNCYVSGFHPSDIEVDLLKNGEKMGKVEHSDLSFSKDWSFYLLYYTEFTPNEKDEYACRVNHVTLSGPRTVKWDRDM

| Binder | koff [1] [s⁻¹] | koff [2] [s⁻¹] | koff [3] [s⁻¹] | koff [4] [s⁻¹] | kd ratio pH 7.4/6.0 [5] | kd ratio pH 7.4/6.0 [6] |
| --- | --- | --- | --- | --- | --- | --- |
| B1 | 7e-05 | 9.7e-05 | 0.0012 | 0.00086 | 17 | 9 |
| B2 | 0.0011 | 0.00044 | 0.049 | 0.033 | 46 | 75 |
| B3 | 0.0018 | 0.0013 | 0.073 | 0.062 | 41 | 48 |
| B4 | 0.0019 | 0.0009 | 0.097 | 0.069 | 51 | 77 |
| B5 | 0.0015 | 0.0012 | 0.039 | 0.033 | 26 | 28 |
| B6 | 0.0032 | 0.0022 | 0.12 | 0.092 | 38 | 42 |
| B7 | 0.00041 | 0.00017 | 0.024 | 0.014 | 59 | 80 |
| B8 | 0.0012 | 0.00053 | 0.071 | 0.042 | 59 | 79 |
| B9 | 0.00099 | 0.00084 | 0.033 | 0.036 | 33 | 43 |
| B10 | 0.0015 | 0.0014 | 0.049 | 0.06 | 33 | 43 |
| B11 | 0.0011 | 0.0009 | 0.04 | 0.035 | 37 | 39 |
| B12 | 0.00086 | 0.00062 | 0.037 | 0.03 | 43 | 48 |
| B13 | 0.0015 | 0.0013 | 0.045 | 0.054 | 30 | 42 |
| B14 | 0.0011 | 0.00071 | 0.041 | 0.029 | 39 | 41 |
| B15 | 0.00077 | 0.00064 | 0.034 | 0.027 | 44 | 42 |
| B16 | 0.0009 | 0.00073 | 0.033 | 0.028 | 37 | 38 |

| Binder | koff [1] [s⁻¹] | koff [2] [s⁻¹] | koff [3] [s⁻¹] | koff [4] [s⁻¹] | kd ratio pH 7.4/6.0 [5] | kd ratio pH 7.4/6.0 [6] |
| --- | --- | --- | --- | --- | --- | --- |
| B17 | 0.0039 | 0.0029 | 0.14 | 0.16 | 36 | 55 |
| B18 | 0.0031 | 0.0024 | 0.16 | 0.2 | 52 | 83 |
| B19 | 0.00069 | 0.00042 | 0.036 | 0.024 | 52 | 57 |
| B20 | 0.0016 | 0.00097 | 0.067 | 0.047 | 42 | 49 |
| B21 | 0.0026 | 0.002 | 0.091 | 0.092 | 35 | 46 |
| B22 | 0.0016 | 0.0012 | 0.053 | 0.053 | 33 | 44 |
| B23 | 0.00047 | 0.00036 | 0.021 | 0.014 | 45 | 40 |
| B24 | 0.00054 | 0.00035 | 0.024 | 0.017 | 45 | 50 |
| B25 | 0.00071 | 0.00049 | 0.032 | 0.025 | 45 | 51 |
| B26 | 0.0037 | 0.0032 | 0.14 | 0.18 | 38 | 56 |
| B27 | 0.01 | 0.0062 | 0.5 | 0.5 | 50 | 81 |
| B28 | 0.0073 | 0.003 | 0.14 | 0.13 | 19 | 45 |
| B29 | 0.0036 | 0.0024 | 0.16 | 0.15 | 44 | 63 |
| B30 | 0.0092 | 0.0051 | 0.42 | 0.38 | 46 | 75 |
| B31 | 0.0064 | 0.0051 | 0.46 | 0.43 | 72 | 84 |
